Data reported in PMC4380410.

B1: P1 probe (LC12/LC13) (dsDNA)
DNA 1: CGAATGCGGGGACTAGGGATTCTCCTAGTCGACCTTCGTT
DNA 2: AACGAAGGTCGACTAGGAGAATCCCTAGTCCCCGCATTCG
B2: P2 control probe (LC14/LC15) (dsDNA)
DNA 1: TGTGGTTCGCGTCCATGGGTGTCAGGCGGATGCTTAAGTC
DNA 2: GACTTAAGCATCCGCCTGACACCCATGGACGCGAACCACA

Key:
[1] = molecular target: CfaR^full-HIS6 (Streptomyces scabies); experiment: cross-linking; glutaraldehyde (1 μL of 2.3% w/v) added to 80 pmol purified protein in 20 mM sodium phosphate pH 7.5, 20 μL, 5 min at 37°C; stopped with Tris-HCl pH 8.0; SDS-PAGE (12%), Coomassie staining
[2] = molecular target: CfaR^ΔLuxR-HIS6 (Streptomyces scabies); experiment: as above
[3] = molecular target: T1, CfaRfull-HIS6 (Streptomyces scabies 87-22) (UniProt C9ZEC8); experiment: EMSA; conditions: LightShift Chemiluminescent EMSA kit per manufacturer; buffer, salt, pH and temperature not stated (protein stored in 20 mM sodium phosphate, 150 mM NaCl, 20% …)
T1 sequence: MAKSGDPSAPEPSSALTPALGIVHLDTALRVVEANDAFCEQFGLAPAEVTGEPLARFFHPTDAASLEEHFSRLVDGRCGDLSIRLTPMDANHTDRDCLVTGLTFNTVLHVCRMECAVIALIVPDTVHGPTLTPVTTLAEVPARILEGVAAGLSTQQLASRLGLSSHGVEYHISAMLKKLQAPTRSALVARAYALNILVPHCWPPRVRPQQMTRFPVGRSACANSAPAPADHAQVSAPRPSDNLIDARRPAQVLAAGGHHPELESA

CfaRfull-HIS6 = CfaRfull-HIS6 (Streptomyces scabies 87-22, UniProt C9ZEC8 1-265); experiment: EMSA; 0.1 pmol probe, 2 pmol protein; LightShift Chemiluminescent EMSA kit per manufacturer; buffer, salt, pH and temperature not stated (protein stored in 20 mM sodium phosphate, 150 mM NaCl, 20% glycerol, pH 7.8); conditions: protein: recombinant; tags: C-terminal His6; chain copies: 2; blunt

| Molecule | binding [3] | binding result (CfaRfull-HIS6) | other results |
| --- | --- | --- | --- |
| CfaR^full-HIS6 (natural protein) |  |  | stoichiometry N [1]: 2 |
| CfaR^ΔLuxR-HIS6 (domain or fragment) |  |  | stoichiometry N [2]: 2 |
| GACCTTCGTTCTGTAGCCCTTGTATGGTCGCATTGCCTCCGCAGGTCGACCCCTTTCGGCACCATAGGAGACCCTCTTGGCGAACATCGAATCGACCATCAAGCACATCCTGGTCGACGATCTCTTCATCACTGTGCCG (double strand) [fragment b] | no binding |  |  |
| GCACAGGAAGGAGGAGAACCCCTCACCTCGGGCCCTTGGACCCGACACACCCGCAGCGCGTGCGACGGTTCCTGCGCCGGCCGGCCTGACAAACCAGGGCGAGACGCCGCATCTGCGGAACCGGTCGACCCGCAGACGAATCGTGGCCGACGCCAACCCGAATGCGGG (double strand) [fragment c] | no binding |  |  |
| B1 |  | binds |  |
| B2 |  | no binding |  |
